Assay results from patent US20250262210A1 (TRUSTEES OF COLUMBIA UNIVERSITY IN THE CITY OF NEW YORK, published 2025).

Columns and labels:
[1] = biological target: T1, LZTR1 R810W-FLAG (human, UniProt Q8N653 1-840); assay: IP/MS, LZTR1 R810W-FLAG, U87
T1 construct: Stably expressed in U87 cells by lentivirus; also called LZTR1-FLAG-R810W; LZTR1 RW; not shown: FLAG tag
T1 sequence (looked up): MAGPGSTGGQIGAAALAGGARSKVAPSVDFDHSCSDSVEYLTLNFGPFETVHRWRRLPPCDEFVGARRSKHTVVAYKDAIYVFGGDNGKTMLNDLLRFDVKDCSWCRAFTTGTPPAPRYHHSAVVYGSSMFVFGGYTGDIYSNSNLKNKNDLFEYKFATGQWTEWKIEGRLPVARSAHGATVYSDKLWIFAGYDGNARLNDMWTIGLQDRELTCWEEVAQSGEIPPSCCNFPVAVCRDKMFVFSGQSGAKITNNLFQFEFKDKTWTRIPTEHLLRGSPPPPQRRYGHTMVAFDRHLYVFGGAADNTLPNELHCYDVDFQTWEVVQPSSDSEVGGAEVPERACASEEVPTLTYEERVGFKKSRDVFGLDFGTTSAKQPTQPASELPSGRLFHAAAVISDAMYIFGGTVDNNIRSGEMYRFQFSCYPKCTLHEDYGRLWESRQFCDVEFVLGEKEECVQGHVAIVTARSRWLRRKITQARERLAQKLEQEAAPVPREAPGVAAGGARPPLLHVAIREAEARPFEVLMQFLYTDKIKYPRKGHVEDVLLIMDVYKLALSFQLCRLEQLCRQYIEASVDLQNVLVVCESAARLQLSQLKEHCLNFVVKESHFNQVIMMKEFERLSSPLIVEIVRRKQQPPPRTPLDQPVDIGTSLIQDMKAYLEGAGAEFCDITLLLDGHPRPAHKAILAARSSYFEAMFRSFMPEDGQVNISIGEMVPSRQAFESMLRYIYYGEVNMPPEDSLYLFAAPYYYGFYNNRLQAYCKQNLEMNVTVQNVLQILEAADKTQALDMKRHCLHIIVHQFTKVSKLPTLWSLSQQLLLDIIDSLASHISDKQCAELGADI
In short: (§1)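 Read-out: spectral counts from LC-MS/MS (Orbitrap Fusion) after MaxQuant identification. Variable modifications were Met oxidation, protein N-terminal acetylation and N/Q deamidation.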

[2] = biological target: T2, LZTR1-FLAG (human, UniProt Q8N653 1-840); assay: IP/MS, LZTR1 wild type-FLAG, U87
T2 construct: Expressed in HEK 293T, HeLa or U87 cells; used as cell lysate; also called LZTR1 wild type-FLAG; LZTR1 WT; not shown: FLAG tag at the C-terminus
T2 sequence (looked up): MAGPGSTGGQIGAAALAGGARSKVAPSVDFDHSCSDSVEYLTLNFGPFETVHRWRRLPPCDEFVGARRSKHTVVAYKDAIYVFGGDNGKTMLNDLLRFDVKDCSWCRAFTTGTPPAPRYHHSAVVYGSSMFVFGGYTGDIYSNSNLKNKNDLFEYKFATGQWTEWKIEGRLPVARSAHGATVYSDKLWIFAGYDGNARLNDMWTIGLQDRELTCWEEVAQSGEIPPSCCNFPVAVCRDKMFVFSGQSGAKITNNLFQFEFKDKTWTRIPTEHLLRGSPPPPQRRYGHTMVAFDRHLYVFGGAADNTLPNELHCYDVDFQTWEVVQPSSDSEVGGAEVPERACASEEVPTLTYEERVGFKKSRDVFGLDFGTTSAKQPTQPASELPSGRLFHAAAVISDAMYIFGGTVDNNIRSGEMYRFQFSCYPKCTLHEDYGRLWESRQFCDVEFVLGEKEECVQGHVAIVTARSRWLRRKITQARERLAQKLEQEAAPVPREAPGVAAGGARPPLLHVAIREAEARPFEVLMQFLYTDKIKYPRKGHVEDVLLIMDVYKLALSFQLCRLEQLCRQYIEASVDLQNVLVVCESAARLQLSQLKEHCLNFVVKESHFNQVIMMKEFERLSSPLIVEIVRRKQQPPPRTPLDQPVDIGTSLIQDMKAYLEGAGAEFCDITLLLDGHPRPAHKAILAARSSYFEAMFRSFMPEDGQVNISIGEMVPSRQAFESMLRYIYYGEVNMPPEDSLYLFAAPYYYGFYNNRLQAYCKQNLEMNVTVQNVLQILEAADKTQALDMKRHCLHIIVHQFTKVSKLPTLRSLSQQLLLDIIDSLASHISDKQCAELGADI
In short: as §1

| Binder | binding result [1] | binding result [2] |
| --- | --- | --- |
| MALT1 (other, human, UniProt Q9UDY8 2-824, looked up) SLLGDPLQALPPSAAPTGPLLAPPAGATLNRLREPLLRRLSELLDQAPEGRGWRRLAELAGSRGRLRLSCLDLEQCSLKVLEPEGSPSLCLLKLMGEKGCTVTELSDFLQAMEHTEVLQLLSPPGIKITVNPESKAVLAGQFVKLCCRATGHPFVQYQWFKMNKEIPNGNTSELIFNAVHVKDAGFYVCRVNNNFTFEFSQWSQLDVCDIPESFQRSVDGVSESKLQICVEPTSQKLMPGSTLVLQCVAVGSPIPHYQWFKNELPLTHETKKLYMVPYVDLEHQGTYWCHVYNDRDSQDSKKVEIIIGRTDEAVECTEDELNNLGHPDNKEQTTDQPLAKDKVALLIGNMNYREHPKLKAPLVDVYELTNLLRQLDFKVVSLLDLTEYEMRNAVDEFLLLLDKGVYGLLYYAGHGYENFGNSFMVPVDAPNPYRSENCLCVQNILKLMQEKETGLNVFLLDMCRKRNDYDDTIPILDALKVTANIVFGYATCQGAEAFEIQHSGLANGIFMKFLKDRLLEDKKITVLLDEVAEDMGKCHLTKGKQALEIRSSLSEKRALTDPIQGTEYSAESLVRNLQWAKAHELPESMCLKFDCGVQIQLGFAAEFSNVMIIYTSIVYKPPEIIMCDAYVTDFPLDLDIDPKDANKGTPEETGSYLVSKDLPKHCLYTRLSSLQKLKEHLVFTVCLSYQYSGLEDTVEDKQEVNVGKPLIAKLDMHRGLGRKTCFQTCLMSNGPYQSSAATSGGAGHYHSLQDPFHGVYHSHPGNPSNVTPADSCHCSRTPDAFISSFAHHASCHFSRSNVPVETTDEIPFSFSDRLRISEK | binds | binds |
| MCMBP (other, human, UniProt Q9BTE3 1-642, looked up) MPCGEDWLSHPLGIVQGFFAQNGVNPDWEKKVIEYFKEKLKENNAPKWVPSLNEVPLHYLKPNSFVKFRCMIQDMFDPEFYMGVYETVNQNTKAHVLHFGKYRDVAECGPQQELDLNSPRNTTLERQTFYCVPVPGESTWVKEAYVNANQARVSPSTSYTPSRHKRSYEDDDDMDLQPNKQKDQHAGARQAGSVGGLQWCGEPKRLETEASTGQQLNSLNLSSPFDLNFPLPGEKGPACLVKVYEDWDCFKVNDILELYGILSVDPVLSILNNDERDASALLDPMECTDTAEEQRVHSPPASLVPRIHVILAQKLQHINPLLPACLNKEESKTCKFVSSFMSELSPVRAELLGFLTHALLGDSLAAEYLILHLISTVYTRRDVLPLGKFTVNLSGCPRNSTFTEHLYRIIQHLVPASFRLQMTIENMNHLKFIPHKDYTANRLVSGLLQLPSNTSLVIDETLLEQGQLDTPGVHNVTALSNLITWQKVDYDFSYHQMEFPCNINVFITSEGRSLLPADCQIHLQPQLIPPNMEEYMNSLLSAVLPSVLNKFRIYLTLLRFLEYSISDEITKAVEDDFVEMRKNDPQSITADDLHQLLVVARCLSLSAGQTTLSRERWLRAKQLESLRRTRLQQQKCVNGNEL | binds | binds |
| MELK (other, human, UniProt Q14680 1-651, looked up) MKDYDELLKYYELHETIGTGGFAKVKLACHILTGEMVAIKIMDKNTLGSDLPRIKTEIEALKNLRHQHICQLYHVLETANKIFMVLEYCPGGELFDYIISQDRLSEEETRVVFRQIVSAVAYVHSQGYAHRDLKPENLLFDEYHKLKLIDFGLCAKPKGNKDYHLQTCCGSLAYAAPELIQGKSYLGSEADVWSMGILLYVLMCGFLPFDDDNVMALYKKIMRGKYDVPKWLSPSSILLLQQMLQVDPKKRISMKNLLNHPWIMQDYNYPVEWQSKNPFIHLDDDCVTELSVHHRNNRQTMEDLISLWQYDHLTATYLLLLAKKARGKPVRLRLSSFSCGQASATPFTDIKSNNWSLEDVTASDKNYVAGLIDYDWCEDDLSTGAATPRTSQFTKYWTESNGVESKSLTPALCRTPANKLKNKENVYTPKSAVKNEEYFMFPEPKTPVNKNQHKREILTTPNRYTTPSKARNQCLKETPIKIPVNSTGTDKLMTGVISPERRCRSVELDLNQAHMEETPKRKGAKVFGSLERGLDKVITVLTRSKRKGSARDGPRRLKLHYNVTTTRLVNPDQLLNEIMSILPKKHVDFVQKGYTLKCQTQSDFGKVTMQFELEVCQLQKPDVVGIRRQRLKGDAWVYKRLVEDILSSCKV | binds | binds |
| NDC80 (other, human, UniProt O14777 1-642, looked up) MKRSSVSSGGAGRLSMQELRSQDVNKQGLYTPQTKEKPTFGKLSINKPTSERKVSLFGKRTSGHGSRNSQLGIFSSSEKIKDPRPLNDKAFIQQCIRQLCEFLTENGYAHNVSMKSLQAPSVKDFLKIFTFLYGFLCPSYELPDTKFEEEVPRIFKDLGYPFALSKSSMYTVGAPHTWPHIVAALVWLIDCIKIHTAMKESSPLFDDGQPWGEETEDGIMHNKLFLDYTIKCYESFMSGADSFDEMNAELQSKLKDLFNVDAFKLESLEAKNRALNEQIARLEQEREKEPNRLESLRKLKASLQGDVQKYQAYMSNLESHSAILDQKLNGLNEEIARVELECETIKQENTRLQNIIDNQKYSVADIERINHERNELQQTINKLTKDLEAEQQKLWNEELKYARGKEAIETQLAEYHKLARKLKLIPKGAENSKGYDFEIKFNPEAGANCLVKYRAQVYVPLKELLNETEEEINKALNKKMGLEDTLEQLNAMITESKRSVRTLKEEVQKLDDLYQQKIKEAEEEDEKCASELESLEKHKHLLESTVNQGLSEAMNELDAVQREYQLVVQTTTEERRKVGNNLQRLLEMVATHVGSVEKHLEEQIAKVDREYEECMSEDLSENIKEIRDKYEKKATLIKSSEE | binds | binds |
| NGLY1 (other, human, UniProt Q96IV0 2-654, looked up) AAAALGSSSGSASPAVAELCQNTPETFLEASKLLLTYADNILRNPNDEKYRSIRIGNTAFSTRLLPVRGAVECLFEMGFEEGETHLIFPKKASVEQLQKIRDLIAIERSSRLDGSNKSHKVKSSQQPAASTQLPTTPSSNPSGLNQHTRNRQGQSSDPPSASTVAADSAILEVLQSNIQHVLVYENPALQEKALACIPVQELKRKSQEKLSRARKLDKGINISDEDFLLLELLHWFKEEFFHWVNNVLCSKCGGQTRSRDRSLLPSDDELKWGAKEVEDHYCDACQFSNRFPRYNNPEKLLETRCGRCGEWANCFTLCCRAVGFEARYVWDYTDHVWTEVYSPSQQRWLHCDACEDVCDKPLLYEIGWGKKLSYVIAFSKDEVVDVTWRYSCKHEEVIARRTKVKEALLRDTINGLNKQRQLFLSENRRKELLQRIIVELVEFISPKTPKPGELGGRISGSVAWRVARGEMGLQRKETLFIPCENEKISKQLHLCYNIVKDRYVRVSNNNQTISGWENGVWKMESIFRKVETDWHMVYLARKEGSSFAYISWKFECGSVGLKVDSISIRTSSQTFQTGTVEWKLRSDTAQVELTGDNSLHSYADFSGATEVILEAELSRGDGDVAWQHTQLFRQSLNDHEENCLEIIIKFSDL | binds | binds |
| PAFAH1B1 (other, human, UniProt P43034 1-410, looked up) MVLSQRQRDELNRAIADYLRSNGYEEAYSVFKKEAELDVNEELDKKYAGLLEKKWTSVIRLQKKVMELESKLNEAKEEFTSGGPLGQKRDPKEWIPRPPEKYALSGHRSPVTRVIFHPVFSVMVSASEDATIKVWDYETGDFERTLKGHTDSVQDISFDHSGKLLASCSADMTIKLWDFQGFECIRTMHGHDHNVSSVAIMPNGDHIVSASRDKTIKMWEVQTGYCVKTFTGHREWVRMVRPNQDGTLIASCSNDQTVRVWVVATKECKAELREHEHVVECISWAPESSYSSISEATGSETKKSGKPGPFLLSGSRDKTIKMWDVSTGMCLMTLVGHDNWVRGVLFHSGGKFILSCADDKTLRVWDYKNKRCMKTLNAHEHFVTSLDFHKTAPYVVTGSVDQTVKVWECR | binds | binds |
